Laboratory results published in paper PMC3783447, “Tropine Forming Tropinone Reductase Gene from Withania somnifera (Ashwagandha): Biochemical Characteristics of the Recombinant Enzyme and Novel Physiological Overtones of Tissue-Wide Gene Expression Patterns” (PLoS ONE, 2013).

Key:
WsTR-I [1] = target: T1, WsTR-I (Withania somnifera, UniProt U5PUZ1); assay: spectrophotometric A340, NADPH oxidation; assay type: biochemical; conditions: forward reaction, MES-NaOH pH 6.7, 30°C, kcat per monomer, unit inferred from kcat/Km
T1 construct: His6-tagged (pET28a NdeI/BamHI), E. coli BL21 (DE3); Ni-NTA and gel filtration; homodimer about 60 kDa
Source text: (§1) spectrophotometric A340, NADPH oxidation on WsTR-I

WsTR-I [2] = target: T1, WsTR-I; assay: spectrophotometric A340, NADP+ reduction; assay type: biochemical; conditions: reverse reaction; tropine; 30°C; printed kcat 0.54 (no unit) disagrees with printed kcat/Km
Source text: spectrophotometric A340, NADP+ reduction on WsTR-I

[3] = target: Withania somnifera tropine forming tropinone reductase (WsTR-I), recombinant His6-WsTR-I (Withania somnifera); assay: SEC; calibrated Sephadex G-150 column (70.0 cm x 0.6 cm), 0.1 M MES-NaOH pH 6.7 with 0.1 M NaCl, 5 ml/h; markers ovalbumin, BSA, alcohol dehydrogenase; elution followed by catalytic activity; native mass about 60 kDa compared with the 29.41 kDa subunit
[4] = test system: CN1[C@@H]2CC[C@H]1CC(=O)C2; assay: spectrophotometric A340, NADPH oxidation; assay type: biochemical, Withania somnifera; conditions: forward reaction, MES-NaOH pH 6.7, 30°C, kcat per monomer, unit inferred from kcat/Km
Source text: as §1

`CC1CCCC(=O)C1` (stereo not shown) [3-methyl-cyclohexanone] was tested. Which Km (WsTR-I [1]; NADPH) did it give?
The Km was 2110 µM.

How did the Km (WsTR-I [1]; tropinone) turn out when `NC(=O)C1=CN([C@@H]2O[C@H](COP(=O)(O)OP(=O)(O)OC[C@H]3O[C@@H](n4cnc5c(N)ncnc54)[C@H](OP(=O)(O)O)[C@@H]3O)[C@@H](O)[C@H]2O)C=CC1` [NADPH] was run?
Its Km is 0.43 µM.

`NC(=O)c1ccc[n+]([C@@H]2O[C@H](COP(=O)(O)OP(=O)(O)OC[C@H]3O[C@@H](n4cnc5c(N)ncnc54)[C@H](OP(=O)(O)O)[C@@H]3O)[C@@H](O)[C@H]2O)c1` [NADP^+] was tested. Which Km (WsTR-I [2]) did it give?
Its Km is 96.2 µM.

“Withania somnifera tropine forming tropinone reductase (WsTR-I), recombinant His6-WsTR-I (enzyme)” was tested. Which stoichiometry N [3] did it give?
Its stoichiometry N is 2.

WsTR-I (Withania somnifera) was tested. Which Km [4] did it give?
Its Km is 1270 µM.

And the kcat [4]?
The kcat was 9.51 s⁻¹.

And the kcat/Km [4]?
The kcat/Km was 7490 M⁻¹ s⁻¹.
